Results on 4 molecules are retold here after US20140286952A1 (BOARD OF SUPERVISORS FOR THE UNIVERSITY OF LOUISIA SYSTEM …, published 2014).

In assay [1] the target is zonula occludens-1 (ZO-1), endogenous protein of prostate cancer cells and tumor specimens (UniProt Q07157). Description: cell-based or functional assay.
For assay [2] the target is unchanged. Nature of the assay: in situ proximity ligation assay in PC-3CTRwt cells, 50 nM CT for 30 seconds.
The target of assay [3] is T1, zonula occludens-1 (ZO-1), endogenous protein of prostate cancer cells and tumor specimens (UniProt Q07157 1-1748, limits assumed).
T1 construct: whole, on cells; Intracellular protein; detected in cell lysates or fixed cells with anti-ZO-1 serum; The cells and tissues are human; also called tight junction protein 1; TJP-1
T1 sequence (Q07157 whole entry): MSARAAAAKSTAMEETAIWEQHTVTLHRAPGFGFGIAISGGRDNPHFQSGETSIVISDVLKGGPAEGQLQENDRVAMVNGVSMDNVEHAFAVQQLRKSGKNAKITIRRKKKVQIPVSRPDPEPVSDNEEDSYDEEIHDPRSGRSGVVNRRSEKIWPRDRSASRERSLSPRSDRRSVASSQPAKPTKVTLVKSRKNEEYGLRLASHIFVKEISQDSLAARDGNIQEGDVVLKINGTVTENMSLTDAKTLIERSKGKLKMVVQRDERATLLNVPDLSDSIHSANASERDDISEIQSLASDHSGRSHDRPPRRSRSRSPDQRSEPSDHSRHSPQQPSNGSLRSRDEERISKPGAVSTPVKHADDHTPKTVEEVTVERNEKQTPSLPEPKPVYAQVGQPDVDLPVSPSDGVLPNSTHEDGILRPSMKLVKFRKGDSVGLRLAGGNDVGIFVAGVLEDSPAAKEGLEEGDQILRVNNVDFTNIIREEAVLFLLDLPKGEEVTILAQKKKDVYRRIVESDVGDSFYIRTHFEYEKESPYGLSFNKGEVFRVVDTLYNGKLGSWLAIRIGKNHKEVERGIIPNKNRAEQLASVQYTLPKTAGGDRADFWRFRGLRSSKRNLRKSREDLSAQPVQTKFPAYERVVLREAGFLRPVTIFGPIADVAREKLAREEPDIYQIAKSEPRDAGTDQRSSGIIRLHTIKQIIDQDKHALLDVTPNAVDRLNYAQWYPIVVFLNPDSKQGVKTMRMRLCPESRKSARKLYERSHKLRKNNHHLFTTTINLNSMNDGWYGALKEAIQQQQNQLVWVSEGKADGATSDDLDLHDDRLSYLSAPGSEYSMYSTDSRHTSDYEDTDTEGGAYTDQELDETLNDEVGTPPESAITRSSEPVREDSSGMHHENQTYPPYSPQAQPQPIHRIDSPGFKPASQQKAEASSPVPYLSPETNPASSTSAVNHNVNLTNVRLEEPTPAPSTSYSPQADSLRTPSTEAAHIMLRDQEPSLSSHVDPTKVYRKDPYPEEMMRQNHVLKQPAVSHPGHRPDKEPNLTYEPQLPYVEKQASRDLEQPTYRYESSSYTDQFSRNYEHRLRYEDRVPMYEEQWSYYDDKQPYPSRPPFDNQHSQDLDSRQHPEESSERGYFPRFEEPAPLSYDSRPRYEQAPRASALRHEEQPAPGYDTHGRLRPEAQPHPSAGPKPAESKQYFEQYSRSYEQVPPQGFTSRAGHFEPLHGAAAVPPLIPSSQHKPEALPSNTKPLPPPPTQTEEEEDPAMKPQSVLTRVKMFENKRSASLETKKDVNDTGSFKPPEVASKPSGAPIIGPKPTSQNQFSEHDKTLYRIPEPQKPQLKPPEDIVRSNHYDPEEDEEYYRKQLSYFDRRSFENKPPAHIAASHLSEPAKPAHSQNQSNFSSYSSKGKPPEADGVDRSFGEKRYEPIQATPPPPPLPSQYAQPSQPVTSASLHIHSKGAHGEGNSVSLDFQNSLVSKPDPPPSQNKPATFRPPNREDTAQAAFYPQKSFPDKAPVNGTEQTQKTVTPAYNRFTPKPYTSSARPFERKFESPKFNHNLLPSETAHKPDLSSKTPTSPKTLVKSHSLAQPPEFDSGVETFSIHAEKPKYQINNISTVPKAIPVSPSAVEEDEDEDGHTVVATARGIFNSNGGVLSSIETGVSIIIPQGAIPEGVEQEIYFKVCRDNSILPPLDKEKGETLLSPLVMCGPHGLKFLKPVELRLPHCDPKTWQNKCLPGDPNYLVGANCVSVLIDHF
Description: GST pull-down from PC-3 cell lysates, ZO-1 immunoblot.

Assay [4] concerns the target T1, zonula occludens-1 (ZO-1), endogenous …. Nature of the assay: in situ proximity ligation assay in PC-3CTRΔESS cells.
Assay [5] deals with T2, ZO-1wt-YFP (wild-type ZO-1 fused to yellow fluorescent protein, ZO-1wt-EYFP-N1) (UniProt Q07157 1-1748).
T2 construct: whole, on cells; also called ZO-wt-YFP; ZO-1-YFP; not shown: EYFP of the EYFP-N1 plasmid
T2 sequence (Q07157 whole entry, the tested form may be a part): as the sequence (Q07157 whole entry) above
Nature of the assay: acceptor photobleaching FRET microscopy in live PC-31 cells.

Chain of zonula occludens-1 (ZO-1), endogenous protein of prostate cancer cells and tumor specimens (UniProt Q07157) (Q07157 whole entry): as above

In assay [1], “FLAG-CTRwt (full-length wild-type calcitonin receptor, FLAG-tagged, expressed in PC-3 / PC-31 cells) (from UniProt P30988 25-474)” returned a decrease in transepithelial electric resistance (TER) of polarized PC-3 cells of 40% and an invasion through Matrigel after 50 nM CT of 2.5 fold. In addition, the fold increase in CTR-ZO-1 interactions (PLA dots) after CT against no CT in assay [2] came to 80 fold.

B1: GST-CTR-CΔESS fusion protein (GST fused to the intracellular C-terminal domain of CTRΔESS, aa 441-476) (other, human, UniProt P30988 441-474, looked up)
chain: YICHQELRNEPANNQGEESAEIIPLNIIEQAAAA
notes: range 441-476; also called CTR-C-ΔPDZ; not shown: GST from the pGEX vector
Consider B1, for which the binding result in assay [3] is reported as “no binding (tested: 2 µg fusion protein)”.

B2: FLAG-CTRΔESS (full-length calcitonin receptor with the C-terminal PDZ-binding motif ESSA replaced by AAAA, FLAG-tagged) (receptor, human, UniProt P30988 25-474, looked up)
chain: AFSNQTYPTIEPKPFLYVVGRKKMMDAQYKCYDRMQQLPAYQGEGPYCNRTWDGWLCWDDTPAGVLSYQFCPDYFPDFDPSEKVTKYCDEKGVWFKHPENNRTWSNYTMCNAFTPEKLKNAYVLYYLAIVGHSLSIFTLVISLGIFVFFRSLGCQRVTLHKNMFLTYILNSMIIIIHLVEVVPNGELVRRDPVSCKILHFFHQYMMACNYFWMLCEGIYLHTLIVVAVFTEKQRLRWYYLLGWGFPLVPTTIHAITRAVYFNDNCWLSVETHLLYIIHGPVMAALVVNFFFLLNIVRVLVTKMRETHEAESHMYLKAVKATMILVPLLGIQFVVFPWRPSNKMLGKIYDYVMHSLIHFQGFFVATIYCFCNNEVQTTVKRQWAQFKIQWNQRWGRRPSNRSARAAAAAAEAGDIPIYICHQELRNEPANNQGEESAEIIPLNIIEQAAAA
notes: whole, on cells; also called FLAG-CTR-ΔPDZ; CTRΔPDZ; not shown: FLAG tag at the 5' end of the construct
B2: the binding result in assay [4] is recorded as “no binding”.

B3: CTRΔESS-CFP (calcitonin receptor with ESSA replaced by AAAA, fused to cyan fluorescent protein, CTRΔESS-ECFP-N1) (receptor, human, UniProt P30988 25-474, looked up)
chain: AFSNQTYPTIEPKPFLYVVGRKKMMDAQYKCYDRMQQLPAYQGEGPYCNRTWDGWLCWDDTPAGVLSYQFCPDYFPDFDPSEKVTKYCDEKGVWFKHPENNRTWSNYTMCNAFTPEKLKNAYVLYYLAIVGHSLSIFTLVISLGIFVFFRSLGCQRVTLHKNMFLTYILNSMIIIIHLVEVVPNGELVRRDPVSCKILHFFHQYMMACNYFWMLCEGIYLHTLIVVAVFTEKQRLRWYYLLGWGFPLVPTTIHAITRAVYFNDNCWLSVETHLLYIIHGPVMAALVVNFFFLLNIVRVLVTKMRETHEAESHMYLKAVKATMILVPLLGIQFVVFPWRPSNKMLGKIYDYVMHSLIHFQGFFVATIYCFCNNEVQTTVKRQWAQFKIQWNQRWGRRPSNRSARAAAAAAEAGDIPIYICHQELRNEPANNQGEESAEIIPLNIIEQAAAA
notes: whole, on cells; also called CTRΔESS (CTRΔPDZ)-CFP; not shown: ECFP of the ECFP-N1 plasmid
With B3, the binding result in assay [5] is reported as “no binding”.
